Data set [1] concerns the molecule itself. The data set can be described thus: SDS/PAGE and Western blot without cross-linker.
Data set [2] concerns the molecule itself. Put plainly: cross-linking.
Data set [3] deals with the molecule itself. The data set can be described thus: cross-linking. The source holds these as a separate data set.

B1: domain I of human TPC2 (TPC2^1–339) (domain or fragment, UniProt Q8NHX9 1-339, looked up)
chain: MAEPQAESEPLLGGARGGGGDWPAGLTTYRSIQVGPGAAARWDLCIDQAVVFIEDAIQYRSINHRVDASSMWLYRRYYSNVCQRTLSFTIFLILFLAFIETPSSLTSTADVRYRAAPWEPPCGLTESVEVLCLLVFAADLSVKGYLFGWAHFQKNLWLLGYLVVLVVSLVDWTVSLSLVCHEPLRIRRLLRPFFLLQNSSMMKKTLKCIRWSLPEMASVGLLLAIHLCLFTMFGMLLFAGGKQDDGQDRERLTYFQNLPESLTSLLVLLTTANNPDVMIPAYSKNRAYAIFFIVFTVIGSLFLMNLLTAIIYSQFRGYLMKSLQTSLFRRRLGTRAAFE
Turning to B1, the “stoichiometry N” value in data set [1] stood at 2; in the data set “cross-linking [2]”, 2.3.

B2: domain II of human TPC1 (TPC1^427–816) (domain or fragment)
chain: not shown
modifications: N-glycosylated (bands sensitive to PNGase F)
For B2, the “stoichiometry N” value amounted to 2 in data set [1] and 2.2 in “cross-linking [2]”.

B3: domain I of human TPC1 (TPC1^1–347) (domain or fragment)
chain: not shown
Regarding B3, in “cross-linking [2]”, the “stoichiometry N” value was 2.1.

B4: first four TM regions of human TPC1 (TPC1^1–225) (domain or fragment)
chain: not shown
Consider B4, for which the “stoichiometry N” value in the data set “cross-linking [3]” is 2.

B5: domain II of human TPC2 (TPC2^422–752) (domain or fragment, UniProt Q8NHX9 422-752, looked up)
chain: LQSAQFLFGHYYFDYLGNLIALANLVSICVFLVLDADVLPAERDDFILGILNCVFIVYYLLEMLLKVFALGLRGYLSYPSNVFDGLLTVVLLVLEISTLAVYRLPHPGWRPEMVGLLSLWDMTRMLNMLIVFRFLRIIPSMKLMAVVASTVLGLVQNMRAFGGILVVVYYVFAIIGINLFRGVIVALPGNSSLAPANGSAPCGSFEQLEYWANNFDDFAAALVTLWNLMVVNNWQVFLDAYRRYSGPWSKIYFVLWWLVSSVIWVNLFLALILENFLHKWDPRSHLQPLAGTPEATYQMTVELLFRDILEEPGEDELTERLSQHPHLWLCR
Turning to B5, the “stoichiometry N” value in “cross-linking [2]” turned out to be 2.2.

The values are drawn from PMC3242506 (Biochemical Journal, 2011).
